Laboratory results from the RNAGym collection of RNA variant scans (doi:10.1093/molbev/msab373).

B1: Azoarcus group I ribozyme (parent)
chain: GUGCCUUGCGCCGGGAAACCACGCAAGGGAUGGUGUCAAAUUCGGCGAAACCUAAGCGCCCGCCCGGGCGUAUGGCAACGCCGAGCCAAGCUUCGGCGCCUGCGCCGAUGAAGGUGUAGAGACUAGACGGCACCCACCUAAGGCAAACGCUAUGGUGAAGGCAUAGUCCAGGGAGUGGCGAAAGUCACACAAACCGG

Variants of: B1
Experiment: reverse-splicing fitness (ratio to wild type); higher = more active; in vitro selection; Mg2+ level not given
Method in brief: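 An in vitro group I ribozyme library with randomized positions was T7-transcribed and gel-purified. In triplicate, 10 pmol RNA in EPPS pH 7.5 was reacted with 50 pmoles of a 30-nt RNA substrate for 1 h at 37 °C across several added MgCl2 levels (1–48 mM), then stopped with EDTA. Products were reverse transcribed from a substrate-complementary primer, PCR-amplified and sequenced (HiSeq 4000). Fitness is a variant's read proportion after selection over that before, normalised to wild type.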

Row | Variant | reverse-splicing fitness
1 | C82A A120U A145C C150U C169G U176G | 0.00196
2 | C82A A120U A145C C150U C169U | 0.00313
3 | C82A A120U A145C C150U C169U U176A | 0.00245
4 | C82A A120U A145C C150U C169U U176C | 0.00257
5 | C82A A120U A145C C150U C169U U176G | 0.00212
6 | C82A A120U A145C C150U U176A | 0.00945
7 | C82A A120U A145C C150U U176C | 0.0147
8 | C82A A120U A145C C150U U176G | 0.00464
9 | C82A A120U A145C C169A | 0.00194
10 | C82A A120U A145C C169A U176A | 0.00193
11 | C82A A120U A145C C169A U176C | 0.0019
12 | C82A A120U A145C C169A U176G | 0.00126
13 | C82A A120U A145C C169G | 0.0041
14 | C82A A120U A145C C169G U176A | 0.00227
15 | C82A A120U A145C C169G U176C | 0.00235
16 | C82A A120U A145C C169G U176G | 0.00139
17 | C82A A120U A145C C169U | 0.00406
18 | C82A A120U A145C C169U U176A | 0.00271
19 | C82A A120U A145C C169U U176C | 0.00274
20 | C82A A120U A145C C169U U176G | 0.00109
21 | C82A A120U A145C U176A | 0.0307

Row | Variant | reverse-splicing fitness
22 | C82A A120U A145C U176C | 0.0456
23 | C82A A120U A145C U176G | 0.00979
24 | C82A A120U A145G | 0.142
25 | C82A A120U A145G C150A | 0.0231
26 | C82A A120U A145G C150A C169A | 0.00563
27 | C82A A120U A145G C150A C169A U176A | 0.0062
28 | C82A A120U A145G C150A C169A U176C | 0.00397
29 | C82A A120U A145G C150A C169A U176G | 0.00236
30 | C82A A120U A145G C150A C169G | 0.00494
31 | C82A A120U A145G C150A C169G U176A | 0.00661
32 | C82A A120U A145G C150A C169G U176C | 0.00523
33 | C82A A120U A145G C150A C169G U176G | 0.00227
34 | C82A A120U A145G C150A C169U | 0.00423
35 | C82A A120U A145G C150A C169U U176A | 0.0044
36 | C82A A120U A145G C150A C169U U176C | 0.00385
37 | C82A A120U A145G C150A C169U U176G | 0.003
38 | C82A A120U A145G C150A U176A | 0.0103
39 | C82A A120U A145G C150A U176C | 0.0142
40 | C82A A120U A145G C150A U176G | 0.00391
41 | C82A A120U A145G C150G | 0.0192
42 | C82A A120U A145G C150G C169A | 0.0097

Row | Variant | reverse-splicing fitness
43 | C82A A120U A145G C150G C169A U176A | 0.0135
44 | C82A A120U A145G C150G C169A U176C | 0.0082
45 | C82A A120U A145G C150G C169A U176G | 0.00515
46 | C82A A120U A145G C150G C169G | 0.00686
47 | C82A A120U A145G C150G C169G U176A | 0.00824
48 | C82A A120U A145G C150G C169G U176C | 0.00694
49 | C82A A120U A145G C150G C169G U176G | 0.00415
50 | C82A A120U A145G C150G C169U | 0.00784
51 | C82A A120U A145G C150G C169U U176A | 0.00865
52 | C82A A120U A145G C150G C169U U176C | 0.00657
53 | C82A A120U A145G C150G C169U U176G | 0.00419
54 | C82A A120U A145G C150G U176A | 0.00758
55 | C82A A120U A145G C150G U176C | 0.0117
56 | C82A A120U A145G C150G U176G | 0.00433
57 | C82A A120U A145G C150U | 0.116
58 | C82A A120U A145G C150U C169A | 0.00691
59 | C82A A120U A145G C150U C169A U176A | 0.00597
60 | C82A A120U A145G C150U C169A U176C | 0.00287
61 | C82A A120U A145G C150U C169A U176G | 0.00195
62 | C82A A120U A145G C150U C169G | 0.00684
63 | C82A A120U A145G C150U C169G U176A | 0.00591

Row | Variant | reverse-splicing fitness
64 | C82A A120U A145G C150U C169G U176C | 0.0042
65 | C82A A120U A145G C150U C169G U176G | 0.00214
66 | C82A A120U A145G C150U C169U | 0.00646
67 | C82A A120U A145G C150U C169U U176A | 0.00414
68 | C82A A120U A145G C150U C169U U176C | 0.00493
69 | C82A A120U A145G C150U C169U U176G | 0.00226
70 | C82A A120U A145G C150U U176A | 0.0246
71 | C82A A120U A145G C150U U176C | 0.0478
72 | C82A A120U A145G C150U U176G | 0.00635
73 | C82A A120U A145G C169A | 0.00287
74 | C82A A120U A145G C169A U176A | 0.00307
75 | C82A A120U A145G C169A U176C | 0.00257
76 | C82A A120U A145G C169A U176G | 0.00129
77 | C82A A120U A145G C169G | 0.00528
78 | C82A A120U A145G C169G U176A | 0.00295
79 | C82A A120U A145G C169G U176C | 0.00373
80 | C82A A120U A145G C169G U176G | 0.00125
81 | C82A A120U A145G C169U | 0.0064
82 | C82A A120U A145G C169U U176A | 0.00354
83 | C82A A120U A145G C169U U176C | 0.00364
